In paper PMC11218997, “Human cytomegalovirus deploys molecular mimicry to recruit VPS4A to sites of virus assembly” (PLOS Pathogens, 2024):
Changes are numbered by the printed parent chain. In names and notes the source's numbering stands.

B1: VPS4A-FLAG-V13D: FLAG-tagged VPS4A with V13D substitution that prevents binding to MIM2 (protein, UniProt Q9UN37 1-437, looked up, variant V13D)
Vacuolar protein …: MTTSTLQKAIDLDTKATEEDKAKNYEEALRLYQHAVEYFLHAIKYEAHSDKAKESIRAKCVQYLDRAEKLKDYLRSKEKHGKKPVKENQSEGKGSDSDSEGDNPEKKKLQEQLMGAVVMEKPNIRWNDVAGLEGAKEALKEAVILPIKFPHLFTGKRTPWRGILLFGPPGTGKSYLAKAVATEANNSTFFSVSSSDLMSKWLGESEKLVKNLFELARQHKPSIIFIDEVDSLCGSRNENESEAARRIKTEFLVQMQGVGNNNDGTLVLGATNIPWVLDSAIRRRFEKRIYIPLPEEAARAQMFRLHLGSTPHNLTDANIHELARKTEGYSGADISIIVRDSLMQPVRKVQSATHFKKVCGPSRTNPSMMIDDLLTPCSPGDPGAMEMTWMDVPGDKLLEPVVCMSDMLRSLATTRPTVNADDLLKVKKFSEDFGQES
modifications: FLAG tag
B2: VPS4A(L64D)-FLAG: FLAG-tagged VPS4A with L64D substitution that prevents binding to MIM1 (protein, UniProt Q9UN37 1-437, looked up, variant L64D)
Vacuolar protein …: B1 Vacuolar protein … with D13V, L64D
modifications: FLAG tag
B3: Vps20: the yeast CHMP6 homologue (protein, UniProt Q04272 2-221, looked up)
Vacuolar protein …: GQKSSKVHITKTDRAILEVKRSKDEIHKFTRRTDNLILVEKSQLKDLIRKNPENYKSNMKVRFLLKRIHYQEHLLQQASDQLINLENMVSTLEFKMVEKQFINGLKNGNEILKKLNKEFSNVDELMDDVQDQIAYQNEINETLSRSLVGTSNYEDDLDKELDALESELNPEKMNNAKVANMPSTEGLPSLPQGEQTEQKEREEFATEERSDTKEPLALLS
B4: HHV6 pUL44: HA-tagged pUL71 homologue from HHV6 (pU44) (protein)
chain: MGNCFRRLSLFGQPTQAKYEMLCSSDDLETEELTYFLDMTYKDFGVYQNDIISHQKDTETMKTLLGLLPMYKKTKLRHTVMERCLSNCPNHVKDALCVELMKAEKILQTMDVVFMKTLIGEFSMCTDNLNQLLNKFATDQSTLSDVEKINSLIEIDGENSKRLLVELDPILHEETGLYQALPNVVTEAPSEKVKSIRVESEGESV
modifications: left off: HA, C-terminal, kept
B5: HSV-1 pUL51: HA-tagged pUL71 homologue from HSV-1 (pUL51) (protein)
chain: MASLLGAICGWGARPEEQYEMIRAAVPPSEAEPRLQEALAVVNALLPAPITLDDALGSLDDTRRLVKARALARTYHACMVNLERLARHHPGFEAPTIDGAVAAHQDKMRRLADTCMATILQMYMSVGAADKSADVLVSQAIRSMAESDVVMEDVAIAERALGLSAFGVAGGTRSGGIGVTEAPSLGHPHTPPPEVTLAPAARNGDALPDPKPESCPRVSVPRPTASPTAPRPGPSRAAPCVLGQ
modifications: left off: HA, C-terminal, kept

Tests used:
pUL71 = experiment: Co-transfection localisation of VPS4A-FLAG variants with pUL71, COS-7 cells; type: cell-based, HCMV; conditions: COS-7, co-transfection
From the text: Human VPS4A-FLAG, C-terminally fused with the FLAG-tag epitope, was expressed from expression vector pBJ5-Vps4Flag (gift from A. Calistri, University of Padova, Italy). Cloning of this vector is described in detail in [100]. The VPS4-FLAGΔMIT variant, comprising VPS4A residues 119–437, was generated from pBJ5-Vps4Flag using primers bex_VPS4aa119-437 and Flag+Stop_rev. Point mutant VPS4A-FLAG-V13D was amplified using primers Vps4A-V13D_for and Flag+Stop_rev. Variant VPS4-FLAG-L64D was generated by fusion PCR where primers Vps4_for and Vps4A-L64D_rev generated a fragment that was used as forward primer in a second PCR together with primer Flag+Stop_rev to generate full-length VPS4A. All VPS4A variants were cloned using restriction enzymes into backbone vector pEF1/Myc-His C.
Intracellular localisation studies after transient expression were performed in COS-7 cells that were seeded with 3.3×10^4 cells per well on glass coverslips in a 24-well plate. The next day, cells were transfected with the respective DNAs by using Lipofectamine LTX (Invitrogen) according to the manufacturer’s protocol. Between 20 to 24 hours post-transfection, cells were fixed with 4% (v/v) paraformaldehyde (PFA) in PBS for 10 min at 4°C and prepared for localisation analysis by using indirect immunofluorescence staining.

yeast Vps4 = conditions: reported; cited from earlier work
VPS4A-FLAG [1] = experiment: Co-transfection localisation, immunofluorescence, COS-7 cells; type: cell-based, human; conditions: COS-7, 20–24 h post-transfection
From the text: (§1) All eukaryotic expression plasmids for pUL71 and pUL71 homologues were generated in the backbone of pEF1/Myc-His C expression vector (Invitrogen) by cloning using restriction enzymes. The open reading frame (ORF) of full-length UL71 was amplified from the HCMV wild-type BAC TB40-BAC4 using the primers ex_71_for and ex_71_rev and was the basis for all further UL71 mutants. C-terminally truncated variants UL71_1–326, UL71_1–320 and UL71_1–314 were generated using primers ex_71_for and respective reverse primers UL71_1–326_rev, UL71_1–320_rev and UL71_1–314_rev. Point mutants PPAA (P315A+P318A), V317D, P315A and P318A of the vMIM2 of pUL71 were generated by fusion PCR. For the example of the PPAA mutant, a first fragment UL71_1-326-PPAA was amplified with the primers ex_71_for and UL71 _1–326_P315A/P318A_rev. A second fragment UL71_320–361 was amplified by using primers UL71_1–361_P315A/P318A-for and ex_71_rev. The final PCR product UL71-PPAA was amplified by using fragment UL71_1-326-PPAA as template and ex_71_for and fragment UL71_320–361 as primers. UL71-V317D, UL71-P315A and UL71-P318A were generated similarly manner using the primers UL71 _1–326_V317D_rev, UL71 _1–326_P315A_rev and UL71 _1–326_P318A_rev, respectively, to generate the first fragment. […]

VPS4A-FLAG [2] = experiment: Anti-FLAG co-immunoprecipitation from co-transfected HEK293FT cells; type: cell-based, human; conditions: 48 h post-transfection, immunoblot
From the text: as §1

Molecule	association of VPS4A variant with pUL71 at juxtanuclear compartments (pUL71)	Kd (yeast Vps4)	recruitment of VPS4A-FLAG to juxtanuclear compartments (VPS4A-FLAG [1])	co-precipitation by VPS4A-FLAG (VPS4A-FLAG [2])
B1	prevents association	–	–	–
B2	efficiently recruited by pUL71	–	–	–
B3	–	188 µM	–	–
B4	–	–	it is recruited	bind efficiently to co-transfected VPS4A-FLAG
B5	–	–	not recruited to juxtanuclear membranes	do not
